Key:
[1] = target: shADAM9-His (His-tagged soluble human ADAM9) (human) (UniProt Q13443); assay: BIACORE SPR; antibody captured on Fab2 goat anti-human Fc surface, shADAM9-His 6.25-100 nM as analyte; 1:1 Langmuir
[2] = target: shADAM9-His (His-tagged soluble human ADAM9) (human) (UniProt Q13443); assay: binding affinity study (BIACORE, Table 7); reference not named
[3] = target: shADAM9-His (His-tagged soluble human ADAM9) (human) (UniProt Q13443); assay: BIACORE SPR; antibody captured, huADAM9-His as analyte

Row | Binder | Kd [1] | fold increase in affinity [2] | Kd [3] | koff [3] | kon [3]
1 | chMAB-A (antibody, V domains shown) VH: QVQLQQPGAELVKPGASVKLSCKASGYTFTSYWMHWVKQRPGQGLEWIGEIIPINGHTNYNEKFKSKATLTLDKSSSTAYMQLSSLASEDSAVYYCARGGYYYYGSRDYFDYWGQGTTLTVSS VL: DIVLTQSPASLAVSLGQRATISCKASQSVDYDGDSYMNWYQQIPGQPPKLLIYAASDLESGIPARFSGSGSGTDFTLNIHPVEEEDAATYYCQQSHEDPFTFGGGTKLEIK | 3.6 nM | – | – | – | –
2 | hMAB-A (2.3) (antibody, V domains shown) VH: EVQLVESGGGLVKPGGSLRLSCAASGFTFSSYWMHWVRQAPGKGLEWVGEIIPIFGHTNYNEKFKSRFTISLDNSKNTLYLQMGSLRAEDTAVYYCARGGYYYYGSRDYFDYWGQGTTVTVSS VL: DIVMTQSPDSLAVSLGERATISCRASQSVDYSGDSYMNWYQQKPGQPPKLLIYAASDLESGIPARFSGSGSGTDFTLTISSLEPEDFATYYCQQSHEDPFTFGQGTKLEIK | 1.3 nM | 2 fold | – | – | –
3 | hMAB-A (4.4) (antibody, V domains shown) VH: EVQLVESGGGLVKPGGSLRLSCAASGFTFSSYWIHWVRQAPGKGLEWVGEIIPIFGHTNYNERFQGRFTISLDNSKNTLYLQMGSLRAEDTAVYYCARGGYYYYGSRDYFDYWGQGTTVTVSS VL: DIVMTQSPDSLAVSLGERATISCRASQSVDYSGDSYLNWYQQKPGQPPKLLIYAASDLESGIPARFSGSGSGTDFTLTISSLEPEDFATYYCQQSYSTPFTFGQGTKLEIK | 2 nM | – | – | – | –
4 | hMAB-A (1.1) (antibody, V domains shown) VH: EVQLVESGGGLVKPGGSLRLSCAASGFTFSSYWMHWVRQAPGKGLEWVGEIIPINGHTNYNEKFKSRFTISLDNSKNTLYLQMGSLRAEDTAVYYCARGGYYYYGSRDYFDYWGQGTTVTVSS VL: DIVMTQSPDSLAVSLGERATISCKASQSVDYDGDSYMNWYQQKPGQPPKLLIYAASDLESGIPARFSGSGSGTDFTLTISSLEPEDFATYYCQQSHEDPFTFGQGTKLEIK | 3.5 nM | – | – | – | –
5 | hMAB-A (2I.2) (antibody, V domains shown) VH: EVQLVESGGGLVKPGGSLRLSCAASGFTFSSYWMHWVRQAPGKGLEWVGEIIPIFGHTNYNEKFKSRFTISLDNSKNTLYLQMGSLRAEDTAVYYCARGGYYYYPRQGFLDYWGQGTTVTVSS VL: DIVMTQSPDSLAVSLGERATISCKASQSVDYSGDSYMNWYQQKPGQPPKLLIYAASDLESGIPARFSGSGSGTDFTLTISSLEPEDFATYYCQQSHEDPFTFGQGTKLEIK | – | – | 0.4 nM | 0.00023 s⁻¹ | 660000 M⁻¹ s⁻¹
6 | hMAB-A (2.2) (antibody, V domains shown) VH: EVQLVESGGGLVKPGGSLRLSCAASGFTFSSYWMHWVRQAPGKGLEWVGEIIPIFGHTNYNEKFKSRFTISLDNSKNTLYLQMGSLRAEDTAVYYCARGGYYYYGSRDYFDYWGQGTTVTVSS VL: DIVMTQSPDSLAVSLGERATISCKASQSVDYSGDSYMNWYQQKPGQPPKLLIYAASDLESGIPARFSGSGSGTDFTLTISSLEPEDFATYYCQQSHEDPFTFGQGTKLEIK | 1.4 nM | 2 fold | 0.6 nM | 0.00055 s⁻¹ | 900000 M⁻¹ s⁻¹
7 | hMAB-A (3.3) (antibody, V domains shown) VH: EVQLVESGGGLVKPGGSLRLSCAASGFTFSSYWMHWVRQAPGKGLEWVGEIIPIFGHTNYNERFQGRFTISLDNSKNTLYLQMGSLRAEDTAVYYCARGGYYYYGSRDYFDYWGQGTTVTVSS VL: DIVMTQSPDSLAVSLGERATISCRASQSVDYSGDSYMNWYQQKPGQPPKLLIYAASDLESGIPARFSGSGSGTDFTLTISSLEPEDFATYYCQQSHEDPFTFGQGTKLEIK | 1.4 nM | 2 fold | – | – | –
8 | hMAB-A (2D.2) (antibody, V domains shown) VH: EVQLVESGGGLVKPGGSLRLSCAASGFTFSSYWMHWVRQAPGKGLEWVGEIIPIFGHTNYNEKFKSRFTISLDNSKNTLYLQMGSLRAEDTAVYYCARGGYYYYTGKGVLDYWGQGTTVTVSS VL: DIVMTQSPDSLAVSLGERATISCKASQSVDYSGDSYMNWYQQKPGQPPKLLIYAASDLESGIPARFSGSGSGTDFTLTISSLEPEDFATYYCQQSHEDPFTFGQGTKLEIK | – | – | 0.8 nM | 0.00058 s⁻¹ | 690000 M⁻¹ s⁻¹
9 | hMAB-A (2B.2) (antibody, V domains shown) VH: EVQLVESGGGLVKPGGSLRLSCAASGFTFSSYWMHWVRQAPGKGLEWVGEIIPIFGHTNYNEKFKSRFTISLDNSKNTLYLQMGSLRAEDTAVYYCARGGYYYYIGKGVLDYWGQGTTVTVSS VL: DIVMTQSPDSLAVSLGERATISCKASQSVDYSGDSYMNWYQQKPGQPPKLLIYAASDLESGIPARFSGSGSGTDFTLTISSLEPEDFATYYCQQSHEDPFTFGQGTKLEIK | – | – | 0.6 nM | 0.00039 s⁻¹ | 610000 M⁻¹ s⁻¹
10 | hMAB-A (2C.2) (antibody, V domains shown) VH: EVQLVESGGGLVKPGGSLRLSCAASGFTFSSYWMHWVRQAPGKGLEWVGEIIPIFGHTNYNEKFKSRFTISLDNSKNTLYLQMGSLRAEDTAVYYCARGGYYYYPRFGWLDYWGQGTTVTVSS VL: DIVMTQSPDSLAVSLGERATISCKASQSVDYSGDSYMNWYQQKPGQPPKLLIYAASDLESGIPARFSGSGSGTDFTLTISSLEPEDFATYYCQQSHEDPFTFGQGTKLEIK | – | – | 1.4 nM | 0.00081 s⁻¹ | 590000 M⁻¹ s⁻¹

Reference: patent US20250115676A1
